Test results published in patent US11510990B2, “Conjugates of fusion proteins of GLP-1 and FGF21” (BEIJING QL BIOPHARMACEUTICAL CO., LTD., priority 2020, dated 2022).
Changes are numbered by the printed parent chain.

B1: Compound 19: GLP-1/FGF21 fusion polypeptide SEQ ID NO: 19 conjugated with Moiety A at 51K and 222K (conjugate)
chain: HGEGTFTSDVSSYLEEQAAREFIAWLVRGGGGGGGSGGGGSGGGGSGGGGKHPIPDSSPLLQFGGQVRQRYLYTDDAQQTEAHLEIREDGTVGGAADQSPESLLQLRALRPGVIQILGVRTSRFLCQRPDGALYGSLHFDPEACSFRELLLEDGYNVYQSEAHGLPLHLPGQRSPHRDPAPRGPARFLPLPGLPPALPEPPGILAPQPPDVGSSDPLSLVGKSQGRSPSYES
modifications: Moiety A conjugated at K51 and K222
B2: Compound 63: GLP-1/FGF21 fusion polypeptide SEQ ID NO: 160 conjugated with Moiety B at 51C and 222C (conjugate)
chain: B1 chain with R20K, R28K, K51C, R107K, R110K, R120K, R173K, K222C
modifications: Moiety B conjugated at C51 and C222

How the values were obtained:
[1] = Body weight reduction in C57BL/6 mice, daily subcutaneous dosing; type: in vivo; conditions: male C57BL/6 mice, 30 nmol/kg subcutaneously everyday, Day 11
Experimental: FIGS. 1A-1F show in vivo activities of fusion protein conjugates. […] Body weight was measured daily. […] Compared to Vehicle control: ***, p<0.001. All data are expressed as mean values and standard error (SEM).
10 week old male C57BL/6 mice were injected everyday subcutaneously with 30 nmol/kg exemplary fusion protein conjugates for 10 or 14 days (n=5). Body weight was daily monitored for each individual animal. Day 1 and Day 10 (or Day 14) are first day and last day of molecule dosage. % BW loss=100*(BW on Day n-BW on Day 1)/(BW on Day 1). Data are indicated as mean values and standard error (SEM) or pooled values. Statistical analysis was performed by One-way ANOVA. Body weight reduction on Day 11 in Table 5 is calculated by −1*(% BW loss−% BW loss of vehicle group).

[2] = Pharmacokinetic measurement in C57BL/6 mice, single subcutaneous dose, plasma ELISA; type: in vivo; conditions: for AUClast / Cmax / Terminal t1/2 / Tmax: single subcutaneous dose 30 nmol/kg, plasma
Experimental: Each fusion protein conjugate was injected subcutaneously into C57BL/6 mice (n=3/group) once and plasma samples were collected at designed timepoints and analyzed by ELISA method. Plasma concentrations are indicated as mean values and standard error (SEM).
6-8 week old male C57BL/6 mice were administrated in a single subcutaneous dose of 30 nmol/kg of the exemplary fusion protein conjugates (Compounds 4, 9, 10, 19, 63) or the non-acylated fusion protein (i.e., Compound 3, which has the amino acid sequence identical to Compound 2 but without any conjugation) (n=3/group). Plasma samples were collected pre-dose (−5 min), 0.5 hr, 1 hr, 2 hr, 4 hr, 6 hr, 8 hr, 12 hr and 24 hr hours after the injection. For Compound 3, plasma collection timepoints were −5 min, 0.25 h, 0.5 h, 1 h, 2 h, 4 h and 6 h. The concentrations of the fusion protein conjugates or the non-acylated fusion protein in the plasma were measured by an ELISA assay which has immunoreactivities towards both C-terminal FGF21 and intact N-terminal of GLP-1. Based on the graph showing plasma concentration of each protein versus time after subcutaneous injection, the pharmacokinetic parameters were calculated by WinNonlin.
Pharmacokinetic data were analyzed by WinNonlin software. Tmax, Cmax, T1/2, AUC and MRT were calculated for each molecule.

[3] = Body weight in DIO mice: fusion protein conjugate against GLP1 alone and FGF21 alone; type: in vivo, DIO male C57BL/6 mice; conditions: both 10 nmol/kg and 30 nmol/kg, subcutaneously everyday for 21 days
Experimental: (§1) FIGS. 3A-3B show in vivo efficacy in DIO mice. To evaluate the body weight effect of the fusion proteins, 17 week old DIO mice (C57BL/6 mice on high fat diet for 13 weeks) were dosed everyday subcutaneously with different concentrations of compounds for 21 days. […] Data are expressed as mean values and standard error (SEM). n=5 for each treatment group.
17 week old DIO male C57BL/6 mice (˜45 g) were injected everyday subcutaneously with designated proteins (i.e., Compounds 63, 69 and 70) for 21 days. Body weight was measured daily and five animals were used for each treatment group. Day 1 and Day 21 are first day and last day of molecule dosage. % BW loss=100*(BW on Day n-BW on Day 1)/(BW on Day 1). Data are indicated as mean values and standard error (SEM).

[4] = Efficacy study in DIO mice: body weight, fasting glucose, insulin, triglycerides; type: in vivo, DIO male C57BL/6 mice
Experimental: as §1, with “4A-4F” for “3A-3B”, “evaluate effects of the compounds on” for “evaluate”, “weight, blood glucose, plasma insulin and plasma triglyceride in vivo, 17-week” for “weight effect of the fusion proteins, 17 week”
17 week old DIO male C57BL/6 mice (˜45 g) were injected everyday subcutaneously with designated proteins (i.e., Compound 63) for 21 days. Body weight was measured daily and five animals were used for each treatment group. Fasting glucose was also monitored on designated days. Body weight and glucose were monitored for each individual animal. Day 1 and Day 21 are first day and last day of molecule dosage. % BW loss=100*(BW on Day n-BW on Day 1)/(BW on Day 1). Terminal blood was collected and EDTA-2k plasma was prepared and frozen in −80° C. for biomarker measurement. Livers were also collected and frozen in liquid nitrogen and stored in −80° C.
Data are indicated as mean values and standard error (SEM). Statistical analysis was performed by One-way ANOVA.

Molecule | Body weight reduction at 30 nmol/kg (% reduction compared to vehicle)(Day11) [1] [%] | AUC compared to non-acylated fusion protein (Compound 3) ([2]; 30 nmol/kg subcutaneous) | Half-lives of double acylated compared to monoacylated Compounds 9 and 10 ([2]; 30 nmol/kg subcutaneous) | PK properties compared to Semaglutide ([2]; 30 nmol/kg subcutaneous) | AUClast [2] [µM·h] | Cmax [2] [nM] | Terminal t1/2 [2] [h] | Tmax [2] [h] | Body weight control compared to GLP1 alone (Compound 70) and FGF21 alone (Compound 69) [3] | Body weight, glycemic control and lipid profile compared to 30 nmol/kg Semaglutide ([4]; 30 nmol/kg subcutaneously everyday for 21 days) | Dose dependence of efficacy ([4]; comparing 10 nmol/kg and 30 nmol/kg)
B1 | 27.0 | larger AUC | significantly prolonged half-lives | better PK properties | 1.018 | 59.9 | 10.8 | 4 |  |  | 
B2 | 24.5 | larger AUC |  |  | 1.2948 | 88.8 | 16.7 | 6.7 | better body weight control | better body weight and glycemic control and lipid profile | Dose dependent efficacy
